Data on one substance can be found in article PMC7692894.

Data set [1] can be described thus: SEC; milk peptide fraction <3 kDa (MP) run beside pepsin autoproteolysis peptides (PP); physiologically relevant conditions; area under the curve at 215 nm; details in Supplementary Information. In general terms: Size exclusion chromatography separates by hydrodynamic size, large species first.
The target of data set [2] is milk-derived short digestion-resistant peptides with the mass <3 kDa. Described as above.

As usually defined, the stoichiometry N is a count of units in the complex or per binding partner.

Turning to “milk-derived short digestion-resistant peptides with the mass <3 kDa”, the “percent of the peptides aggregated” value in data set [1] is listed as 43.5% of the peptides aggregated into larger complexes. The substance also returned a stoichiometry N in data set [2] greater than 4.
